Data on eleven molecules can be found in publication PMC7956722 (Molecules, 2021).

In general, IC50 refers to the concentration that inhibits the measured activity by half. In general, Kd refers to the constant that tells how readily two partners part at equilibrium. A lower Kd goes with higher affinity.

Data set [1] addresses T1, LHRH receptors (membrane receptors of human bladder cancer cells) (Homo sapiens, UniProt P30968).
T1 construct: membrane homogenates of bladder cancer specimens containing 60–150 µg protein were incubated in duplicate; from tissue; host or cells: surgically resected human bladder cancer (transitional cell carcinoma) tissue, crude membrane fractions
T1 sequence (P30968 1-328): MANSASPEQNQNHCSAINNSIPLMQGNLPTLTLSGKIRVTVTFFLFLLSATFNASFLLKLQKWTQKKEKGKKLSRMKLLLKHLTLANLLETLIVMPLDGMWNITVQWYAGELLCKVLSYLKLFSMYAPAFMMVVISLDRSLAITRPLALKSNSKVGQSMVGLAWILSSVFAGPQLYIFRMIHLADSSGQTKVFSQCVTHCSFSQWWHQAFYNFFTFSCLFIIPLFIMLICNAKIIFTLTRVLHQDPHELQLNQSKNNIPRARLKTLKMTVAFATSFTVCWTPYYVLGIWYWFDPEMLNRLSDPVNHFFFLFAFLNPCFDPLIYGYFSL
Put plainly: Ligand competition assay: displacement of [125I][D-Trp6]LHRH by unlabeled peptides. The data set is classed as binding. The conditions noted are these: for displacement of [125I][D-Trp6]LHRH by unrelated peptides: membrane fractions of human bladder cancer specimens, increasing concentrations, mean of duplicate or triplicate determinations. The procedure:
Analysis of the typical displacement of radiolabeled [D-Trp^6] […] Biochemical parameters essential to establish the identity of specific binding sites were also determined.
Each point represents mean of duplicate or triplicate determinations.
The assay was performed as described earlier. […] At the end of the incubation, 125 µL aliquots of suspension were transferred onto the top of 1 mL of ice-cold binding buffer containing 1.5% BSA in microcentrifuge tubes. The tubes were centrifuged at 12,000× g for 3 min at 4 °C. Supernatants were aspirated and the pellet was counted in a gamma counter. Protein concentration was determined by the method of Bradford using a Bio-Rad protein assay kit (Bio-Rad Laboratories, Hercules, CA, USA). The final binding affinities were expressed as IC50 values and were calculated by using the LIGAND-PC computerized curve-fitting program of Munson and Rodbard.
(In general: Displacement assays read how much labelled ligand stays bound in the presence of the test substance.)

Data set [2] relates to bladder cancer in nude mice. To be noted: Szepeshazi et al., cited from earlier work. From the text:
(§1) Our findings are in agreement with the results of Bahk et al. (2008). […] However, there is no information about the role of peptide receptors in bladder carcinogenesis. The signaling pathways have the potential to be an important area of bladder cancer research, leading to the development of effective therapeutic approaches.

A further data set concerns various human cancers. To be noted: trials completed or terminated; cited from earlier work.
Text: as §1

For data set [3], the system named is LHRH-receptor-positive models of human ovarian, mammary, endometrial, and prostatic cancers. To be noted: cited from earlier work.
Data set [4] relates to metastatic bladder cancer. The conditions noted are these: first-line therapy, cisplatin-based chemotherapy; cited from earlier work. From the text: More than 90% of urothelial tumors originate from the urinary bladder, 8% from the renal pelvis, and 2% from the ureter and urethra. Histologically, the majority (around 90%) of bladder cancer is described as the type of TCC and the rest are squamous cell carcinoma, adenocarcinoma, and rarely, small cell carcinoma. Despite advancements in surgical techniques and chemotherapy, the overall survival in metastatic bladder cancer has not improved over the last 20 years. The first-line therapy is cisplatin-based chemotherapy with the response rate of approximately 50% [[4],[31] ...

The subject of the next data set is bladder carcinogenesis. On the set-up: method as in PMID 8551710. To be noted: cited from earlier work.
In a further data set the target is T2, AN-152 (Homo sapiens, pGlu1, D-Lys6 linked through glutaric acid spacer to doxorubicin, C-terminal amide).
T2 chain: QHWSYKLRPG
The data set can be described thus: radioligand competition.

In a further data set the target is T3, [D-Lys6]LHRH (Homo sapiens, pGlu1, D-Lys6, C-terminal amide).
T3 chain: QHWSYKLRPG
Put plainly: radioligand competition.

Data set [5] concerns the target T4, [125I][D-Trp6]LHRH (Homo sapiens, pGlu1, D-Trp6, C-terminal amide, 125I).
T4 chain: QHWSYWLRPG
The data set can be described thus: radioligand competition (patient 3).

Data set [6] concerns the target T4, [125I][D-Trp6]LHRH. Put plainly: radioligand competition (patient 7).
Data set [7] addresses T4, [125I][D-Trp6]LHRH. Put plainly: radioligand competition (patient 8).
The target in data set [8] is T4, [125I][D-Trp6]LHRH. The data set can be described thus: radioligand competition (patient 6).
For data set [9], the target named is T4, [125I][D-Trp6]LHRH. The data set can be described thus: radioligand competition (patient 12).
In data set [10] the target is T4, [125I][D-Trp6]LHRH. Put plainly: radioligand competition (patient 18).
The target of data set [11] is T4, [125I][D-Trp6]LHRH. Put plainly: radioligand competition (patient 14).
Data set [12] has as its target T4, [125I][D-Trp6]LHRH. The data set can be described thus: radioligand competition (patient 10).
Data set [13] addresses T4, [125I][D-Trp6]LHRH. Put plainly: radioligand competition (patient 19).
Data set [14] deals with T4, [125I][D-Trp6]LHRH. The data set can be described thus: radioligand competition (patient 22).
Data set [15] addresses T4, [125I][D-Trp6]LHRH. Put plainly: radioligand competition, Scatchard (mean of 10 bladder cancer specimens).

Like-named read-outs stand apart in the source and are kept apart here. Non-standard residues stand in square brackets, D forms with d. Residues, ends and D or L forms follow the SMILES beside them. dPhe(4-Cl) = N[C@H](Cc1ccc(Cl)cc1)C(=O)O; d2Nal = N[C@H](Cc1ccc2ccccc2c1)C(=O)O; dCit = NC(=O)NCCC[C@@H](N)C(=O)O; d3Pal = N[C@H](Cc1cccnc1)C(=O)O

Text for bladder carcinogenesis: The effects of the androgen regulation system and LHRH agonist on bladder carcinogenesis have been investigated in animals [10].

Regarding `COc1cccc2c1C(=O)c1c(O)c3c(c(O)c1C2=O)C[C@@](O)(C(=O)COC(=O)CCCC(=O)NCCCC[C@@H](NC(=O)[C@H](Cc1ccc(O)cc1)NC(=O)[C@H](CO)NC(=O)[C@H](Cc1c[nH]c2ccccc12)NC(=O)[C@H](Cc1c[nH]cn1)NC(=O)[C@@H]1CCC(=O)N1)C(=O)N[C@@H](CC(C)C)C(=O)N[C@@H](CCCNC(=N)N)C(=O)N1CCC[C@H]1C(=O)NCC(N)=O)C[C@@H]3O[C@H]1C[C@H](N)[C@H](O)[C@H](C)O1` [AN-152], the “binding affinity relative to free carrier [D-Lys6]LHRH (in words)” value in [1] (compared with free peptide carrier [D-Lys6]LHRH, human bladder cancer membranes) was “only slightly lower binding affinity to specific LHRH receptors than the free peptide carrier”. The “binding to LHRH receptors (in words)” value in data set [1] (displacement of [125I][D-Trp6]LHRH, human bladder cancer membranes) was “could effectively bind to LHRH receptors at low nanomolar concentration”. Further, in data set [2] (bladder cancer in nude mice), the “effect compared with DOX” value is listed as “greater effects than DOX”. In data set [2] (nude mice), the “growth inhibition of bladder cancer” value is “inhibits powerfully the growth of the bladder cancer in nude mice” and the “toxicity compared with DOX” value is given as “lesser toxicity”. Moreover, the “outcome of clinical trials” value in the data set with various human cancers was “some of these studies did not achieve their primary endpoint”. In data set [3] (human ovarian, mammary, endometrial, prostatic cancers xenografted into nude mice), the “inhibition of tumor growth in vivo versus respective radicals” value is given as “much more effective in vivo than their respective radicals in inhibiting tumor growth”. For the same molecule, in data set [3] (nude mice), the “toxicity versus respective radicals” value is reported as “less toxic”.
The molecule `CC(=O)N[C@H](Cc1ccc2ccccc2c1)C(=O)N[C@H](Cc1ccc(Cl)cc1)C(=O)N[C@H](Cc1cccnc1)C(=O)N[C@@H](CO)C(=O)N[C@@H](Cc1ccc(O)cc1)C(=O)N[C@H](CCCNC(N)=O)C(=O)N[C@@H](CC(C)C)C(=O)N[C@@H](CCCNC(=N)N)C(=O)N1CCC[C@H]1C(=O)N[C@H](C)C(N)=O` [Cetrorelix] (Ac-[d2Nal][dPhe(4-Cl)][d3Pal]SY[dCit]LRP[dA]-NH2) returned an IC50 in [1] of 0.86 nM.
`CC(C)C[C@H](NC(=O)[C@@H](CCCCN)NC(=O)[C@H](Cc1ccc(O)cc1)NC(=O)[C@H](CO)NC(=O)[C@H](Cc1c[nH]c2ccccc12)NC(=O)[C@H](Cc1cnc[nH]1)NC(=O)[C@@H]1CCC(=O)N1)C(=O)N[C@@H](CCCNC(=N)N)C(=O)N1CCC[C@H]1C(=O)NCC(N)=O` [[D-Lys^6]LHRH]: in data set [1] (read-out: Receptor binding potency (IC50)), the IC50 was 0.98 nM.
With `N.N.[Cl][Pt][Cl]` [cisplatin], the response rate entry in data set [4] was “approximately 50%”.
On to `CC(C)C(=O)Nc1ccc([N+](=O)[O-])c(C(F)(F)F)c1` [flutamide], for which, in the data set on bladder carcinogenesis, the “effect on bladder carcinogenesis” value is “suppressed the LHRH-induced promotion of carcinogenesis”.
With “epidermal growth factor: unrelated peptide”, in data set [1], the “displacement of [125I][D-Trp6]LHRH by unrelated peptides” value is recorded as “did not displace the radioligand”.
The same measure, in the same setting: as for “growth hormone-releasing hormone (GHRH): unrelated peptide”, the entry is “did not displace the radioligand”; as for “human growth hormone (hGH): unrelated peptide”, “did not displace the radioligand”; as for somatostatin: unrelated peptide, “did not displace the radioligand”.
“vasoactive intestinal peptide (VIP): unrelated peptide”: the “displacement of [125I][D-Trp6]LHRH by unrelated peptides” value in data set [1] is recorded as “did not displace the radioligand”.

B1: LHRH receptor type I (protein)
chain: T1 sequence (P30968 1-328)
With B1, the values for the IC50 (with AN-152; in data set [D-Lys6]LHRH) were 1.39 nM and 0.98 nM, respectively. Moreover, the Kd in [125I][D-Trp6]LHRH [5] was 5.76 nM; in data set [125I][D-Trp6]LHRH [6] it was 4.94 nM; in [125I][D-Trp6]LHRH [7] it was 6.26 nM; in data set [125I][D-Trp6]LHRH [8], 6.85 nM; in [125I][D-Trp6]LHRH [9], 3.61 nM; in data set [125I][D-Trp6]LHRH [10], 4.38 nM. In addition, the Kd in [125I][D-Trp6]LHRH [11] was determined as 4.92 nM; in data set [125I][D-Trp6]LHRH [12], 5.02 nM; in data set [125I][D-Trp6]LHRH [13] it was 3.83 nM; in data set [125I][D-Trp6]LHRH [14], 4.31 nM; in data set [125I][D-Trp6]LHRH [15] it was 4.98 nM.
